± gives the uncertainty stated by the source.
Assay: amyloid nucleation score (Sup35N fusion, yeast selection) (log enrichment); library NNK3; higher = more nucleation; inactive = no reads after selection
Outline: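 Yeast lacking psi expressed peptides of 20 random codons fused to Sup35N, received 100 μM copper sulfate for 24 hours, and were then grown for 7 days at 30°C on medium lacking adenine and uracil. Illumina sequencing of input and output plasmid inserts provided the reads. Nucleation scores are DiMSum log enrichments of output over input, centred on the mode of non-aggregating sequences. Any sequence with under 100 input reads was excluded.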

Substance | amyloid nucleation score
SAFGTQGYCKSSVFPEASPR | inactive
SAFNEFFF | inactive
SAFTFPTLWIFTNPTVHLLF | inactive
SAGAQSHSIYRAAVLSACLY | inactive
SAGWHTYRIKHPVSFVGKTI | inactive
SAIPKGKATITFPPLKSFVR | 1.02 ± 0.13
SALFMLPYALTRMVYANLLQ | -0.004 ± 0.75
SARSVIYYVPGLSTWSVTS | inactive
SASVGFGHSSWNPIIGMIRI | inactive
SAVYIDA | inactive
SAVYMVSGIGNNSHTSAFIR | 0.614 ± 0.17
SCAKQLCYHGFLMGH | inactive
SCALDLIDLQKGVTSHKEFI | inactive
SCFISSMYFASWKFRISNGV | inactive
SCGMERRLIIYSSSHNNILY | 0.178 ± 0.88
SCGTMTEIGVGRVLRFFVIL | inactive
SCIFPILGVFADDFTMTFTW | inactive
SCLMLSIYSSQTWKSLCGLK | 0.95 ± 0.12
SCMGFVRQANIVG | inactive
SCNQKMGHLNFCNFFWTLTV | inactive
SCRWMTMCAINSP | 0.726 ± 0.2
SCSCESCYKGVAEYDLVKDV | 1.32 ± 0.16
SCSIVDWSLMIVTYLCWLTN | inactive
SCVDLPWQMRLRHRKCQFDG | inactive

Substance | amyloid nucleation score
SCYCN | inactive
SDDKGVWLIMAGLCGIWSMY | 2.33 ± 0.082
SDEFGDHEGCMLAFRASAVW | inactive
SDEYTVTFHPSTPGKVSERD | inactive
SDGIYV | inactive
SDGKQQLFKENS | inactive
SDMCMVLFLLTVYFVMSGRC | 0.133 ± 0.67
SDNELMIAFESG | inactive
SDRAHGQFFRPGERLPSNPW | -0.069 ± 0.52
SDRLS | inactive
SDVKSS | inactive
SERWGIESHNRNSNMRKTGW | inactive
SEYYCYICLMVSIGFSANLL | inactive
SFCECFQSSKSCKIWTVWIV | inactive
SFCFFRVTLSCTC | inactive
SFCMCGGLLVRSYRSFRFVR | inactive
SFDQNRRVVIFVSPHSEGMR | inactive
SFEPRSLMYNTNRGI | inactive
SFFCN | inactive
SFFTWYTSFSKDDLWSGLTV | inactive
SFGIGSI | inactive
SFHLQVLPRSGVLACISTGF | inactive
SFKKPRPNYLPVFLVYLCNS | inactive
SFLAYYMFYM | inactive

Substance | amyloid nucleation score
SFLIDPTHGLYSLRFFIFCW | inactive
SFLPTV | 0.93 ± 0.23
SFLSKGRSRSSFQWYQGHRA | -0.302 ± 1.1
SFLTKSQKTNCGSLKEMCVG | inactive
SFMITFLIMRHVASFA | inactive
SFNCPNAWSVYLL | inactive
SFNHCM | inactive
SFNVDAYMNINCW | 1.02 ± 0.21
SFPWFDTYSLDVSWHISWRS | inactive
SFRDPHLTHSSVDCRTVYHI | inactive
SFSELVSAASKTQTVCRRKC | inactive
SFSFSKSNVSERDLCSTCTV | inactive
SFSKLVFR | inactive
SFSSLQFVNIATPHY | 0.42 ± 0.2
SFSVTMPMPIYTTLNGPLTN | inactive
SFSYDTRVDVSAILQSQNSL | inactive
SFTMMRSFSA | inactive
SFVPDLRARVMSCSGCSTLG | inactive
SFVYVSALVSLHGGFADAKF | 0.885 ± 0.22
SFWCRVSHLSRDTFMDVRFM | inactive
SFWTQ | inactive
SFYEEGFVSYLDIRGIVYGA | inactive
SFYLVYRGIFDISLTEFVL | inactive
SGCDLLFFYYHRRTVPLANW | inactive

Substance | amyloid nucleation score
SGDPGGHQSRR | inactive
SGFLYCNLSKSSCYAFQAGG | inactive
SGFVRWRSISFLPNHERLST | inactive
SGISCGLGLATGRKYGSGAV | inactive
SGKFTSGLIVRSASIGLYST | 0.747 ± 0.26
SGLLSAVLDAAS | inactive
SGMLIVLRSWLDRDSICEGR | inactive
SGSAQLECASSRAYVMIVHL | 0.425 ± 0.18
SGVGCKSLFWSSVAYMSIWG | inactive
SGVSFDSIGVSVLQTHGGLR | inactive
SGWKQSGS | inactive
SHGHYCIVFVFTRL | inactive
SHHSHSNDVALGSSISF | inactive
SHNGLKTLNGSFLAYLSCRA | 0.904 ± 0.16
SHNSHGYFLSVLVVMRMSGR | inactive
SHRGDAVLVFCLVCLVILDG | inactive
SHRVNWFLCSCLESYFMCNT | -0.522 ± 0.78
SHSLS | inactive
SIAIHSMLKYNVPLVSRHSG | inactive
SIFAVSGLSVF | inactive
SIFCGCLVLLTGNYLLICIS | 1.13 ± 0.17
SIFHLTSKVYISDWFC | 2 ± 0.088
SIFIYDVPIVSRWRIFGKQS | inactive
SIFSSCLSPYSFSYIKLLSC | 0.504 ± 0.26

Substance | amyloid nucleation score
SIGNAIS | inactive
SIGNCIFYTMAVFQWSTYTL | inactive
SIGQHWLGS | inactive
SIGVFRYFVLVLHYWYGISS | inactive
SIGYDCLQSGAFKSLHTMAL | inactive
SIHCIYSWR | 1.27 ± 0.12
SIILGCCLWLHLMH | 2.08 ± 0.059
SIIVTVQLWYVGV | 0.422 ± 0.36
SIKLGILEMCKA | inactive
SILKFNQSLQSLFSNYYHLC | 1.14 ± 0.097
SIMTSFRPFPTWRCG | -0.563 ± 0.57
SIRLIIKELDGNDTCIGVSG | inactive
SISPVSPGIRAKITTAEMVR | -0.201 ± 1.1
SITYCWLHR | 1.77 ± 0.078
SKCIKLFNFNVSCFQTSSLL | 2.29 ± 0.092
SKLWSYWDLSWLTLKVGWLR | inactive
SKRARVKWSTQPHFVRYLLE | inactive
SKSKYHFYHHGEAWSTLVVV | inactive
SKSQSSHHDSYSLWTM | inactive
SLAKFNMNYGTYGLEGFSVW | -0.209 ± 0.81
SLAVGLLNCLL | 2.17 ± 0.075
SLCVVGP | -0.107 ± 0.6
